From the supplement of paper PMC7877785
± gives the uncertainty stated by the source.

Test: self-splicing fitness, log relative to wild type (ln ratio); higher = more splicing; Tetrahymena group I intron in knt gene, E. coli kanamycin selection, DiMSum; sequences stand for … in CUCUCU…GGAGGGAAAAGUUAUCAGGCAUGCACCUGGUAGCUAGUCUUUAAACCAAUAGAUUGCAUCGGUUUAAAAGGCAAGACCGUCAAAUUGCGGGAAAGGGGUCAACAGCCGUUCAGUACCAAGUCUCAGGGGAAACUUUGAGAUGGCCUUGCAAAGGGUAUGGUAAUAAGCUGACGGACAUGGUCCUAACCACGCAGCCAAGUCCUAAGUCAACAGAUCUUCUGUUGAUAUGGAUGCAGUUCACAGACUAAAUGUCGGUCGGGGAAGAUGUAUUCUUCUCAUAAGAUAUAGUCGGACCUCUCCUUAAUGGGAGCUAGCGGAUGAAGUGAUGCAACACUGGAGCCGCUGGGAACUAAUUUGUAUGCGAAAGUAUAUUGAUUAGUUUUGGAGUACUCGUGGUCG
Procedure, shortened: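 DiMSum derived fitness as the error-weighted combination of fold changes across replicates, kanamycin versus no kanamycin, normalised to wild type. E. coli BL21(DE3) held the library, which randomised all eight P1ex-region intron nucleotides within the knt kanamycin-resistance gene on pET-22b(+). Six replicate transformations grew overnight at 37°C or 30°C on LB agar with or without 25 μg/mL kanamycin, also containing 100 μg/mL carbenicillin, 50 μM IPTG and 0.2% rhamnose, and pooled colonies were amplicon-sequenced on an Illumina HiSeq 2500.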

| Sequence | self-splicing fitness (ln) (30 °C) | self-splicing fitness (ln) (37 °C) |
| --- | --- | --- |
| CGUAAGCAAUAUUACGCUAG | -2.48 ± 0.13 | -0.429 ± 0.14 |
| CGUAAGCAAUAUUACGGACU | -0.0269 ± 0.14 | -0.0508 ± 0.14 |
| CGUAAGCAAUAUUACGGAGA | -2.79 ± 0.24 | -2.28 ± 0.29 |
| CGUAAGCAAUAUUACGGAUA |  | -2.1 ± 0.38 |
| CGUAAGCAAUAUUACGGGCA | -3.24 ± 0.23 | -1.09 ± 0.14 |
| CGUAAGCAAUAUUACGGUGG | -1.48 ± 0.082 | -1.25 ± 0.11 |
| CGUAAGCAAUAUUACGUAAC | -4.35 ± 0.26 | -2.51 ± 0.21 |
| CGUAAGCAAUAUUACGUCAG | -1.56 ± 0.11 | 0.0936 ± 0.11 |
| CGUAAGCAAUAUUACGUGCA | -0.906 ± 0.086 | 0.102 ± 0.096 |
| CGUAAGCAAUAUUACGUGGG | -3.43 ± 0.16 | -2.67 ± 0.15 |
| CGUAAGCAAUAUUACGUUGC | -2.73 ± 0.22 | -1.81 ± 0.29 |
| CGUCAGCAAUAUUACGAACA | -0.807 ± 0.078 | 0.843 ± 0.12 |
| CGUCAGCAAUAUUACGAGUA | -2.55 ± 0.28 | -2.69 ± 0.39 |
| CGUCAGCAAUAUUACGAGUC |  | -1.18 ± 0.18 |
| CGUCAGCAAUAUUACGAGUU | -3.3 ± 0.22 | -1.84 ± 0.22 |
| CGUCAGCAAUAUUACGAUAA | -1.1 ± 0.14 | 0.157 ± 0.12 |
| CGUCAGCAAUAUUACGCAAA | -2.96 ± 0.17 | -1.12 ± 0.16 |
| CGUCAGCAAUAUUACGCAGA | -2.79 ± 0.46 | -3.76 ± 0.46 |
| CGUCAGCAAUAUUACGCGGA |  | -3.17 ± 0.32 |
| CGUCAGCAAUAUUACGGAAG | -0.632 ± 0.088 | 0.304 ± 0.12 |

| Sequence | self-splicing fitness (ln) (30 °C) | self-splicing fitness (ln) (37 °C) |
| --- | --- | --- |
| CGUCAGCAAUAUUACGGACU | -0.14 ± 0.09 | 0.0847 ± 0.089 |
| CGUCAGCAAUAUUACGGGGA | -2.96 ± 0.16 | -1.91 ± 0.14 |
| CGUCAGCAAUAUUACGGUCG | -2.52 ± 0.11 | -2 ± 0.15 |
| CGUCAGCAAUAUUACGGUCU | -0.849 ± 0.079 | -0.828 ± 0.1 |
| CGUCAGCAAUAUUACGGUUG | -0.45 ± 0.065 | -0.256 ± 0.081 |
| CGUCAGCAAUAUUACGUCAC |  | -1.42 ± 0.26 |
| CGUCAGCAAUAUUACGUCAU | -3.73 ± 0.19 | -2.59 ± 0.16 |
| CGUCAGCAAUAUUACGUUCA | -1.26 ± 0.082 | -0.74 ± 0.087 |
| CGUGAGCAAUAUUACGAACG | -2.89 ± 0.38 |  |
| CGUGAGCAAUAUUACGAAGU | -3.6 ± 0.21 | -2.41 ± 0.19 |
| CGUGAGCAAUAUUACGACAA |  | -3.33 ± 0.25 |
| CGUGAGCAAUAUUACGACUG | -0.73 ± 0.12 | -0.0318 ± 0.16 |
| CGUGAGCAAUAUUACGAGCC |  | -1.35 ± 0.41 |
| CGUGAGCAAUAUUACGCACG | -3.19 ± 0.29 | -2.94 ± 0.47 |
| CGUGAGCAAUAUUACGCAUA | -3.2 ± 0.28 | -1.18 ± 0.34 |
| CGUGAGCAAUAUUACGCAUU | -4.1 ± 0.47 | -2.15 ± 0.19 |
| CGUGAGCAAUAUUACGCCUA | -1.86 ± 0.25 | -0.88 ± 0.36 |
| CGUGAGCAAUAUUACGGACG | -2.08 ± 0.22 | -1.31 ± 0.38 |
| CGUGAGCAAUAUUACGGUUA | -3.15 ± 0.33 | -2.98 ± 0.29 |
| CGUGAGCAAUAUUACGUAUU | -3.5 ± 0.4 | -3.11 ± 0.35 |
